Results published in paper doi:10.1101/2021.03.04.433768 (bioRxiv, 2021).

Target: HIV-1 envelop trimer (BG505 DS-SOSIP) (HIV-1 group M subtype A, isolate BG505, UniProt Q2N0S6, stabilised)

B1: VHH9 row 4 (VHH9 group, Nb10-Nb13) (VHH)
VHH: QVKLEESGGGSVQAGGSLRLSCTAPGFTSNSCGMAWYRQAPGKEREFVSSISTDGTTSYADSVKGRFTISKDKAKDTVYLQMNSLKPEDTAMYSCKTYGPYCYFDVWGAGTTVTVSA
- binding result: binds
